Source: WO2025083273A1 (dated 2025)
Substitutions are numbered along the chain they refer to. Names and notes keep the numbering of the source.

T1: DR3-8i (human)
T1 construct: also called purified monomeric DR3-8i antigen protein
T1 chain: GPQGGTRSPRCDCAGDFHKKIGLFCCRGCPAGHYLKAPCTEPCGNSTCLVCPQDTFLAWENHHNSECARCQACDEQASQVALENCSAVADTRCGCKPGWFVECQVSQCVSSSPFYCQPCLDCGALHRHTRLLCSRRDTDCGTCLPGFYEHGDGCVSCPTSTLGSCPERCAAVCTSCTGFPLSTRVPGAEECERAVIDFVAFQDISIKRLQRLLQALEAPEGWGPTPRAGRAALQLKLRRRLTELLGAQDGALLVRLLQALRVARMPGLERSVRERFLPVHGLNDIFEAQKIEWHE

T2: human DR3 (TNFRSF25) expressed on cells (human, UniProt Q93038 25-417)
T2 sequence: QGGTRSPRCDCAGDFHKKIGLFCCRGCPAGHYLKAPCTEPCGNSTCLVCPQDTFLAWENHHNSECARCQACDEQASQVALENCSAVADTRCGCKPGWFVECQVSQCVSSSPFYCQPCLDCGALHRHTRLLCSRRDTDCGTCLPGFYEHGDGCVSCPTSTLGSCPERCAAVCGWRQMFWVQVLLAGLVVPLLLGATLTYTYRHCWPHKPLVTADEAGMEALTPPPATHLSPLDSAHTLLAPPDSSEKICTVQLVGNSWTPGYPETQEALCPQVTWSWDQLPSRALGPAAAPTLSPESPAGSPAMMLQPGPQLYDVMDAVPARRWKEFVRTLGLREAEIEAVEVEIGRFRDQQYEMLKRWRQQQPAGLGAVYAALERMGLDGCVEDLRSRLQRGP

T3: recombinant human DR3/TNFRSF25 Fc chimera (human, UniProt Q93038 25-199)
T3 construct: extracellular domain; bought (R&D Systems); also called DR3-Fc; hDR3Fc chimera; not shown: human IgG1 Fc
T3 sequence (looked up): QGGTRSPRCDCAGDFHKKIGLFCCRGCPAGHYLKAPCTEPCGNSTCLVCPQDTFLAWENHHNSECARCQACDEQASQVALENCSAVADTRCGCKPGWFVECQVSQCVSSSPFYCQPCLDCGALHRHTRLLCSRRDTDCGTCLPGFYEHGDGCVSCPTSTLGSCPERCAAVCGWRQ

B1: B9-hIgG1 (antibody, V domains shown)
VH: EVQLVESGGGLVKPGGSLKLSCSASGFTFSSYAMSWVRQTPEKRLEWVATISDGDSYSYFPDSVKDRFIISRDNAKNNLFLQMSHLRSEDTAMYYCTRDRIYGSVQYYAMDYWGQGTSVTVSS
VL: DIVLTQSPASLAVSLGQRATISCRASESVEFSGTSLMQWYQQRPGLPPKLLIYAASNVESGVPARFSGSGSGTDFSLNIHPVEEDDIAMYFCQQSRKLPYTFGGGTKLEIN
notes: chimeric: mouse B9 variable regions, human IgG1; also called B9-H1; Non-humanised B9
B2: VHg6/VLg13 (antibody, human IgG1, V domains shown)
VH: QVQLQQSGGGLVQPGGSLRLSCAASGFTFSSYAMSWVRQAPGKGLEWVATISDGDSYSYFPDSVKDRFTISRDNARNSLYLQMNSLRAEDTAVYYCARDRIYGSVQYYAMDYWGRGTLVTVSS
VL: DIQMTQSPSSLSASVGDRVTITCRASESVEFSGTSLMQWYQQKPGKAPKLLIYAASNVESGVPSRFSGSGSGTDFTFTISSLQPEDIATYYCQQSRKLPYTFGQGTKLEIK
notes: human IgG1
B3: VHg6/VLg11 (antibody, human IgG1, V domains shown)
VH: B2 VH
VL: DIVMTQSPDSLAVSLGERATINCRASESVEFSGTSLMQWYQQKPGQPPKLLIYAASNVESGVPDRFSGSGSGTDFTLTISSLQAEDVAVYYCQQSRKLPYTFGQGTKLEIK
notes: human IgG1
B4: VHg1/VLg11 (antibody, human IgG1, V domains shown)
VH: B2 VH with Q5V, A49S, A75S, R76K, S78T, A92S, R115Q
VL: B3 VL
notes: human IgG1; also called H1L11; VHg1/VL11
B5: VHg5/VLg12 (antibody, human IgG1, V domains shown)
VH: B2 VH with P14A, S30T, T69I, R76K, Y80F
VL: EIVLTQSPATLSLSPGERATLSCRASESVEFSGTSLMQWYQQKPGQAPRLLIYAASNVESGIPARFSGSGSGTDFTLTISSLEPEDFAVYYCQQSRKLPYTFGQGTKLEIK
notes: human IgG1
B6: VHg6/VLg1 (antibody, human IgG1, V domains shown)
VH: B2 VH
VL: B3 VL with I2V, A88V, Q104G, L108V
notes: human IgG1
B7: VHg2/VLg4 (antibody, human IgG1, V domains shown)
VH: B2 VH with V2M, Q5V, Q13K, V37I, A49S, R76K, A97T
VL: B3 VL with I2V, N22S, G45R, P48L, K107R
notes: human IgG1
B8: VHg5/VLg2 (antibody, human IgG1, V domains shown)
VH: B2 VH with P14A, S30T, T69I, R76K, Y80F
VL: B2 VL with M4L, P44A, K46L, F77L, I87F, A88G, K107R
notes: human IgG1
B9: VHg5/VLg13 (antibody, human IgG1, V domains shown)
VH: B2 VH with P14A, S30T, T69I, R76K, Y80F
VL: B2 VL
notes: human IgG1
B10: VHg5/VLg11 (antibody, human IgG1, V domains shown)
VH: B2 VH with P14A, S30T, T69I, R76K, Y80F
VL: B3 VL
notes: human IgG1
B11: VHg3/VLg4 (antibody, human IgG1, V domains shown)
VH: EVQLVQSGGGLVKPGGSLRLSCAASGFKFSSYAMSWVRQAPGKGLEWLSTISDGDSYSYFPDSVKDRFIISRDNAKNSLYLQMNSLRVEDTGVYYCARDRIYGSVQYYAMDYWGQGTLVTVSS
VL: B3 VL with I2V, N22S, G45R, P48L, K107R
notes: human IgG1
B12: VHg2/VLg13 (antibody, human IgG1, V domains shown)
VH: B2 VH with V2M, Q5V, Q13K, V37I, A49S, R76K, A97T
VL: B2 VL
notes: human IgG1
B13: B9 mIgG2A (antibody, V domains shown)
VH: B1 VH
VL: B1 VL
notes: parental mouse IgG2a, kappa; also called B9-M2A; murine anti-hDR3 mAb clone B9
B14: F10 mIgG1 (antibody, V domains shown)
VH: EVQLVESGGDLVKPGGSLKLSCAASGFSFSAYAMSWVRQTPEKILEWVATISDGDPYTYYPDNVKGRFTISRDNARNNLYLQMSHLRSEDTAIYYCTRERNDYDQYYTMDYWGQGTSVTVSS
VL: DIVLTQSPASLVVSLGQRATISCRASKSVSTSGYNYLHWYQQTPGQPPKLLIYLASNLESGVPARFSGSGSGTDFTLNIHPVEEEDVATYYCQHSRELPWTFGRGTKLEIKR
notes: parental mouse IgG1; also called F10-M1; murine anti-hDR3 mAb clone F10

Molecular target: T1, DR3-8i
Assay: BLI, IgG captured on protein A, DR3-8i in solution; Experiment 2

Row | Binder | Kd [nM]
1 | B1 | 0.19
2 | B2 | 0.0956
3 | B3 | 0.0999

Each binder was assayed against T2, human DR3 (TNFRSF25) expressed on cells (assay: cell-based or functional assay).

Row | Binder | EC50 (pM), DR3 Jurkat reporter [pM] | Signal (FLU)
4 | B1 | 457 | 
5 | B4 | 331 | 2.47e+06
6 | B2 | 141 | 2.75e+06
7 | B5 |  | 2.62e+06
8 | B6 |  | 2.16e+06
9 | B7 |  | 2.21e+06
10 | B8 |  | 2.76e+06
11 | B9 |  | 2.7e+06
12 | B10 |  | 2.4e+06
13 | B11 |  | 2.32e+06
14 | B3 | 130 | 2.45e+06
15 | B12 |  | 2.94e+06

Molecular target: T1, DR3-8i
Assay: BLI, IgG captured on protein A, DR3-8i in solution; single experiment, column not clear

Row | Binder | Kd [nM]
16 | B5 | 0.126
17 | B6 | 0.076
18 | B7 | 0.0248
19 | B8 | 0.132
20 | B9 | 0.124
21 | B10 | 0.0881
22 | B11 | 0.385
23 | B12 | 0.157

Molecular target: T1, DR3-8i
Assay: BLI, IgG captured on protein A, DR3-8i in solution; Experiment 1

Row | Binder | Kd [nM]
24 | B1 | 0.327
25 | B4 | 0.001
26 | B2 | 0.225
27 | B3 | 0.19

What follows are binders tested against T3, recombinant human DR3/TNFRSF25 Fc … (assay: SPR (Biacore), His-tagged hDR3-Fc captured by anti-His mAb, bivalent fit; apparent KD).

Row | Binder | Kd [nM]
28 | B13 | 0.561
29 | B14 | 1.07

Each binder was assayed against T3, recombinant human DR3/TNFRSF25 Fc … (assay: HTRF epitope competition on DR3-Fc; competitor DyLight 650 labelled B9 IgG; mean ± SD of three experiments).

Row | Binder | IC50 [nM]
30 | B1 | 0.252
31 | B4 | 0.447
32 | B2 | 0.348
33 | B3 | 0.287

Molecular target: T1, DR3-8i
Assay: BLI, IgG captured on protein A, DR3-8i in solution; Average

Row | Binder | Kd [nM]
34 | B1 | 0.259
35 | B2 | 0.16
36 | B3 | 0.145
